Measured values as given in article PMC6765145.
Like-named read-outs stand apart in the source and are kept apart here.

Experiments:
Test in all cases: EMSA
[1] = target: T1, Aca2 (Pectobacterium carotovorum temperate …, UniProt H9C180 1-116)
T1 sequence: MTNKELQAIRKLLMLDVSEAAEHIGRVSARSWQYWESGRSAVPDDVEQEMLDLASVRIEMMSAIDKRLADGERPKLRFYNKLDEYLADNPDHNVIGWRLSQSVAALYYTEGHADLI

[2] = target: T1, Aca2; remark: listed apart in the source
[3] = target: T1, Aca2; remark: listed apart in the source

B1: wtIR1-scIR2 promoter probe (dsDNA)
DNA 1: CACGAATGCGGCCTTAGCGATTAAAAAATATGAAATGCCTTGCTTGTTCGCGATTGCGAACATATAATTTATTCATCGGAGACTACTGCAGGTCTTCGCTCCTAACGAGGATTCCACAATGC
DNA 2: GCATTGTGGAATCCTCGTTAGGAGCGAAGACCTGCAGTAGTCTCCGATGAATAAATTATATGTTCGCAATCGCGAACAAGCAAGGCATTTCATATTTTTTAATCGCTAAGGCCGCATTCGTG
Work on B1 yielded a Kd [1] of 1.07 nM.

B2: scIR1-scIR2 promoter probe (dsDNA)
DNA 1: CACGAATGCGGCCTTAGCGATTAAAAAATATGAAATGCCTTGCTTGAGACACGAGAGTCTCATATAATTTATTCATCGGAGACTACTGCAGGTCTTCGCTCCTAACGAGGATTCCACAATGC
DNA 2: GCATTGTGGAATCCTCGTTAGGAGCGAAGACCTGCAGTAGTCTCCGATGAATAAATTATATGAGACTCTCGTGTCTCAAGCAAGGCATTTCATATTTTTTAATCGCTAAGGCCGCATTCGTG
B2: no binding [2].

B3: scIR1-wtIR2 promoter probe (dsDNA)
DNA 1: CACGAATGCGGCCTTAGCGATTAAAAAATATGAAATGCCTTGCTTGAGACACGAGAGTCTCATATAATTTATTCATCGGTTCGAGATGGCTCGAATCGCTCCTAACGAGGATTCCACAATGC
DNA 2: GCATTGTGGAATCCTCGTTAGGAGCGATTCGAGCCATCTCGAACCGATGAATAAATTATATGAGACTCTCGTGTCTCAAGCAAGGCATTTCATATTTTTTAATCGCTAAGGCCGCATTCGTG
B3: no binding [3].
